In test [1] the target is T1, human natriuretic peptide receptor A (NPRA) (human, UniProt P16066 33-1061).
T1 sequence (looked up): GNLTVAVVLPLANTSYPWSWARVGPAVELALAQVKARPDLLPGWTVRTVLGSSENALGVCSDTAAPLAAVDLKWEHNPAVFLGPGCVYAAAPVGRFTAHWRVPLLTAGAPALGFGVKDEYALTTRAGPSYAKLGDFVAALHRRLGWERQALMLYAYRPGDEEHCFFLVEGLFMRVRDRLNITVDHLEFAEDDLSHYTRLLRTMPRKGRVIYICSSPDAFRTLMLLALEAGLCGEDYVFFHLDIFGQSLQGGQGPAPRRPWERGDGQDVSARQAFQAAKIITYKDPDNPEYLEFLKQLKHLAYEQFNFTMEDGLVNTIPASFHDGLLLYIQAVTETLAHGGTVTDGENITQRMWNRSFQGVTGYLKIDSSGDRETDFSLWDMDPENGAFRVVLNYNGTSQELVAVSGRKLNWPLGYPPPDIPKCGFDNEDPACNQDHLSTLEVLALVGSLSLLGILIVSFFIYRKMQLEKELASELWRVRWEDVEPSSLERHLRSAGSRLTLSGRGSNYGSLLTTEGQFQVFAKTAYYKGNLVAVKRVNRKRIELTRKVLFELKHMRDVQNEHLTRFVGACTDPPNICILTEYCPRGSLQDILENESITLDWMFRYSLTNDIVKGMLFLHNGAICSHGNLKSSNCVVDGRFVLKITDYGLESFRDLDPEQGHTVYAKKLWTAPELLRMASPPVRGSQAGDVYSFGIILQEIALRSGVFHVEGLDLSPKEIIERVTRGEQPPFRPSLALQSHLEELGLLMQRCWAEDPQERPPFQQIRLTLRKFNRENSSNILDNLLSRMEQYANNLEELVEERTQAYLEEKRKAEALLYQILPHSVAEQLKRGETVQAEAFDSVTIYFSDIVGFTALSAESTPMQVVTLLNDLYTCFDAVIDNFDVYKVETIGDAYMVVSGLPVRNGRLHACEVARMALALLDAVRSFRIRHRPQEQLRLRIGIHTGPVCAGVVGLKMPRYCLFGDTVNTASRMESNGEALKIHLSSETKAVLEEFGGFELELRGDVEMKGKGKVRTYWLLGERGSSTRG
In words: cell-based or functional assay.

Test [2] addresses T2, rat NPRA (rat, UniProt P18910 29-1057).
T2 sequence (looked up): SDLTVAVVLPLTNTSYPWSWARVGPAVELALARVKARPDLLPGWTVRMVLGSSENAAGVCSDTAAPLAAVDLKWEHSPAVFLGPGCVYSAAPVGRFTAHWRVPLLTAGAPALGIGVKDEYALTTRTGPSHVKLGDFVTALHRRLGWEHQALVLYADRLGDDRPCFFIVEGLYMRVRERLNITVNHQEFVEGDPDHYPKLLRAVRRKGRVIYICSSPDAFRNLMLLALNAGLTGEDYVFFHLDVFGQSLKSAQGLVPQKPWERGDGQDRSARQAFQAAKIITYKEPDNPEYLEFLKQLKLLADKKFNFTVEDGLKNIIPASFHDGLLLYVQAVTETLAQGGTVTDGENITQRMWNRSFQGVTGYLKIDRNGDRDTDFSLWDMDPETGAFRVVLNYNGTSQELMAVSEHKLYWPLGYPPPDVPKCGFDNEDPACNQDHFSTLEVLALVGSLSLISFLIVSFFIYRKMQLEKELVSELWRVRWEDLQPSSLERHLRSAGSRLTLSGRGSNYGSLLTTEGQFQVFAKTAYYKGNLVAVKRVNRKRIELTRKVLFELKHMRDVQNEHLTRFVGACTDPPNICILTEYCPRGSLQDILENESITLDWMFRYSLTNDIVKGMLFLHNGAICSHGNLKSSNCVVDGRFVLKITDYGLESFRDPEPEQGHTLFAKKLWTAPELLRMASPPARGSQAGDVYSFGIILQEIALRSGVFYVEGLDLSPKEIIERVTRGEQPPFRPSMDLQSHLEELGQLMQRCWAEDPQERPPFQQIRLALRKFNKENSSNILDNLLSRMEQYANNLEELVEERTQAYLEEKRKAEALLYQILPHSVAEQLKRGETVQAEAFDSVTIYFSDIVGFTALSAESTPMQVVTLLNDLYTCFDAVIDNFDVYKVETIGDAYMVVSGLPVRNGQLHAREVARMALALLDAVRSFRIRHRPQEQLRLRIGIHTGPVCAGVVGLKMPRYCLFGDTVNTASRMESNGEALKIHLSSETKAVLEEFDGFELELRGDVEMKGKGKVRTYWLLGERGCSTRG
In words: cell-based or functional assay.

Test [3] deals with T3, canine NPRA (canine, UniProt A0A8I3MHU3 32-1060).
T3 sequence: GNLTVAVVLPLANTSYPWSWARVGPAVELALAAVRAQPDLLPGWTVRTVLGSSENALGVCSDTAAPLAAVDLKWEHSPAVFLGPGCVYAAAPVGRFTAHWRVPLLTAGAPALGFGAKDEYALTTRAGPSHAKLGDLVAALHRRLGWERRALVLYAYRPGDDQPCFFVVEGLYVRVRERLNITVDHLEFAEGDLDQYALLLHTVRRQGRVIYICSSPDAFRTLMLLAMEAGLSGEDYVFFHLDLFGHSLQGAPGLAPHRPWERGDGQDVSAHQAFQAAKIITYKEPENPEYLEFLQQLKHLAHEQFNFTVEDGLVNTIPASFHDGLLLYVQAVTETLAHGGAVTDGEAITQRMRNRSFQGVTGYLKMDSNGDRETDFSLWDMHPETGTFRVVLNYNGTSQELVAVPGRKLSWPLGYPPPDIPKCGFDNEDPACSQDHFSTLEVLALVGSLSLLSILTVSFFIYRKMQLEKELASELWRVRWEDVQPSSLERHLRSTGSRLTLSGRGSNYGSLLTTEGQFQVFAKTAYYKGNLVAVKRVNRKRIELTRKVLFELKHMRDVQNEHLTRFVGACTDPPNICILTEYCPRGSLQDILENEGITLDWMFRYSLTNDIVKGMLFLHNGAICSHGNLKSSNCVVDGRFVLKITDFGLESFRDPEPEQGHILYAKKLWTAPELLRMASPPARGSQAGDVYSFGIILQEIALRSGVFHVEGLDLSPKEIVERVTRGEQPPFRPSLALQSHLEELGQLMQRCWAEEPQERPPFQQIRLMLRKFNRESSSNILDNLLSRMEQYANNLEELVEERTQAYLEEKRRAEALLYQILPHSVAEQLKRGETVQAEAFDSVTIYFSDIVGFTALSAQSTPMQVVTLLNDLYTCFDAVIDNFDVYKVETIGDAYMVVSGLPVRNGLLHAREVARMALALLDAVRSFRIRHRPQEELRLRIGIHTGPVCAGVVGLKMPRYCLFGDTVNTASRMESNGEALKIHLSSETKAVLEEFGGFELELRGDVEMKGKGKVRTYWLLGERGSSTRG
Description: cell-based or functional assay.

In test [4] the target is monkey NPRA (monkey). In words: cell-based or functional assay.
Test [5] deals with T1, human natriuretic peptide receptor A …. In words: competition with 125I-labeled ANP on human NPRA transfected HEK293 cells. The procedure: (§1) Plates were washed using vacuum filtration and allowed to dry. Scintillant was added and the plates were counted on a TopCount Scintillation counter. Curves were fit using XLfit4.2 and IC₅₀ values (Table 8) were determined using the Dose Response One Site Model 205, [4 parameter fit: y=A+((B-A)/(1+((C/x)̂D)))].

Test [6] shares this target. In words: competition with 125I-labeled ANP on human NPRA transfected HEK293 cells; Ki=IC50/[1+([L]/Kd)]. The method, then:
Plates were washed with ice cold buffer by vacuum filtration and allowed to dry. Scintillant was added and the plates were counted on a TopCount Scintillation counter.
as §1

The target is the same in test [7]. In words: competition with 125I-labeled ANP on human NPRA transfected HEK293 cells; relative to Construct 1. The method, then: as §1
Test [8] deals with T3, canine NPRA. In words: cell-based or functional assay. The source holds these as a separate data set.

Three molecules from patent US20100310561A1 (Boehringer Ingelheim, published 2010) can be followed below.

Where no end group is shown, it is not given here.

B1: Construct 5, ANPXY-L6-Fc2AB (recombinant) (Fc fusion)
chain: SLRRSSCFGGRMDRIGAQSGLGCNSFRYGGSGGSGGSGGSGGSGGSGGCPPCPAPPVAGPSVFLFPPKPKDTLMISRTPEVTCVVVDVSHEDPEVQFNWYVDGVEVHNAKTKPREEQFNSTFRVVSVLTVVHQDWLNGKEYKCKVSNKGLPAPIEKTISKTKGQPREPQVYTLPPSREEMTKNQVSLTCLVKGFYPSDIAVEWESNGQPENNYKTTPPMLDSDGSFFLYSKLTVDKSRWQQGNVFSCSVMHEALHNHYTQKSLSLSPGK
notes: also called ANP28-20aa-hFc2
As usually defined, the IC50 is the concentration at which inhibition is half-maximal. For orientation: Ki means a measure of affinity in units of concentration, obtained from inhibition or displacement. With B1, the “cGMP EC50 (nM) Human NPRA” value in test [1] was determined as 6 nM. The “cGMP EC50 (nM) Rat NPRA” value in test [2] came to 12 nM. Moreover, the “cGMP EC50 (nM) Dog NPRA” value in test [3] is 6 nM. In addition, in test [4], the “cGMP EC50 (nM) Monkey NPRA” value stood at 5 nM. In test [5], this molecule yielded an IC50 of 4.3 nM. In addition, the inhibition constant (Ki) in test [6] was 2 nM. Besides, the “Relative Affinity” value in test [7] is 1.
For SLRRSSCFGGRMDRIGAQSGLGCNSFRY (ends and bridges not checked; also: also used 125I-labelled as radioligand) [human ANP28 peptide (hANP28)], in test [8], the “Mean EC50 nM, cGMP-caNPRA 293” value came out at 1.34 nM. In addition, the “cGMP EC50 (nM) Dog NPRA” value in test [3] stood at 1.3 nM. Also, the “cGMP EC50 (nM) Monkey NPRA” value in test [4] was 0.5 nM.

B2: Construct 4, ANPXY-L4-Fc2AB (recombinant) (Fc fusion)
chain: SLRRSSCFGGRMDRIGAQSGLGCNSFRYGGSGGSGGSGGCPPCPAPPVAGPSVFLFPPKPKDTLMISRTPEVTCVVVDVSHEDPEVQFNWYVDGVEVHNAKTKPREEQFNSTFRVVSVLTVVHQDWLNGKEYKCKVSNKGLPAPIEKTISKTKGQPREPQVYTLPPSREEMTKNQVSLTCLVKGFYPSDIAVEWESNGQPENNYKTTPPMLDSDGSFFLYSKLTVDKSRWQQGNVFSCSVMHEALHNHYTQKSLSLSPGK
notes: also called ANP28-11aa-hFc2
As for B2, the “cGMP EC50 (nM) Human NPRA” value in test [1] was determined as 27 nM. In test [2], the “cGMP EC50 (nM) Rat NPRA” value amounted to 57 nM. Also, in test [3], the “cGMP EC50 (nM) Dog NPRA” value was found to be 46 nM. In addition, in test [4], the “cGMP EC50 (nM) Monkey NPRA” value stood at 18 nM. Also, the half-maximal inhibitory concentration (IC50) in test [5] turned out to be 29.3 nM. In test [6], the Ki was determined as 12.3 nM. The “Relative Affinity” value in test [7] came out at 4.
